Reference: patent US9670515B2, “Methods for production of xylosylxylitol oligomers” (The Regents of the University of California, priority 2014, dated 2017)
“Also recorded” adds a separate entry of the source.

Columns and labels:
[1] = tested on: CDT-2; assay: Yeast cell-based xylodextrin uptake assay; design: species or system Neurospora crassa; conditions: starting concentration 100 μM, 30 minutes
Procedure: (§1) S. cerevisiae was grown in an optimized minimum medium (oMM) lacking uracil into late log phase. The oMM contained 1.7 g/L YNB (Sigma, Y1251), 2-fold appropriate CSM dropout mixture, 10 g/L (NH4)2SO4, 1 g/L MgSO4.7H2O, 6 g/L KH2PO4, 100 mg/L adenine hemisulfate, 10 mg/L inositol, 100 mg/L glutamic acid, 20 mg/L lysine, 375 mg/L serine and 100 mM 4-morpholineethanesulfonic acid (MES), pH 6.0 (Lin et al., submitted). Cells were then harvested and washed three times with assay buffer (5 mM MES, 100 mM NaCl, pH 6.0) and resuspended to a final OD600 of 40. Substrate stocks were prepared in the same assay buffer at a concentration of 200 μM. Transport assays were initiated by mixing equal volumes of the cell suspension and the substrate stock. Reactions were incubated at 30° C. with continuous shaking for 30 minutes. Samples were centrifuged at 14,000 rpm at 4° C. for 5 minutes to remove yeast cells. 400 μL of each sample supernatant was transferred to an HPLC vial containing 100 μL of 0.5 M NaOH, and the concentration of the remaining substrate was measured by HPAEC as described below.
as §1, with “(Lin et al. 2014). Cells were” for “(Lin et al., submitted). Cells were”, “30 minutes. […] 400 μL” for “30 minutes. Samples were centrifuged at 14,000 rpm at 4° C. for 5 minutes to remove yeast cells. 400 μL”, “100 μL 0.5 M” for “100 μL of 0.5 M”

[2] = Activity of bacterial GH43-7 enzymes on xylobiose or xylosyl-xylitol; format: biochemical; conditions: purified enzyme; for β-xylosidase activity: xylobiose (X2) substrate; for xylosyl-xylitol hydrolase activity: xylosyl-xylitol (xlt2) substrate
Procedure: Experiments were also conducted to further explore potential xylosyl-xylitol hydrolase activity of other β-xylosidases. […] To see if these proteins actually have xylosyl-xylitol hydrolase activity, purified B. subtilis GH43-7 and purified E. coli GH43-7 were incubated with xylobiose (X2) or xylosyl-xylitol (xlt2) and their activity on these substrates was analyzed. […] In summary, two GH43 enzymes from bacteria Bacillus subtilis (AAB41091.1) and Escherichia coli (WP_000406872.1) were tested and confirmed to both cleave xylosyl-xylitol.
S. cerevisiae strains transformed with pRS423_GH43-2, pRS423_GH43-7, or pRS313_NcXR were grown in oMM lacking histidine with 2% glucose until late log phase before harvesting by centrifugation. E. coli strains BL21DE3 transformed with pET302_BsGH43-7 or pET302_EcGH43-7 were grown in TB medium, induced with 0.2 mM IPTG at OD600 of 0.8, and harvested by centrifugation 12 hours after induction. Yeast or E. coli cell pellets were resuspended in a buffer containing 50 mM Tris-HCl, 100 mM NaCl, 0.5 mM DTT, pH 7.4 and protease inhibitor cocktail (Pierce). Cells were lysed with an Avestin homogenizer, and the clarified supernatant was loaded onto a HisTrap column (GE Healthcare). His-tagged enzymes were purified with an imidazole gradient, buffer-exchanged into 20 mM Tris-HCl, 100 mM NaCl, pH 7.4, and concentrated to 5 mg/mL.

[3] = β-xylosidase assay of GH43-2 and GH43-7 with xylosyl-xylitol and xylobiose; format: biochemical, Neurospora crassa; conditions: purified enzyme
Procedure: For the β-xylosidase assay of GH43-2 with xylodextrins, 0.5 μM of purified enzyme was incubated with 0.1% in-house prepared xylodextrin or 1 mM xylobiose (Megazyme) in 1×PBS at 30° C. Reactions were sampled at 30 min and quenched by adding 5 volumes of 0.1 mM NaOH. The products were analyzed by HPAEC as described below. For pH profiling, acetate buffer at pH 4.0, 4.5, 5.0, 5.5, 6.0, and phosphate buffer at 6.5, 7.0, 7.5, 8 were added at a concentration of 0.1 M. For the β-xylosidase assay of GH43-2 and GH43-7 with xylosyl-xylitol, 10 μM of purified enzyme was incubated with 4.5 mM xylosyl-xylitol and 0.5 mM xylobiose in 20 mM MES buffer, pH=7.0, and 1 mM CaCl2 at 30° C. Reactions were sampled at 3 hours and quenched by heating at 99° C. for 10 min. The products were analyzed by ion-exclusion HPLC as described below.
For the β-xylosidase assay of GH43-2 with xylodextrins, 0.5 μM of purified enzyme was incubated with 0.1% in-house prepared xylodextrin or 1 mM xylobiose (Megazyme) in 1×PBS at 30° C. Reactions were sampled at 30 min and quenched by adding 5 volumes of 0.1 M NaOH. The products were analyzed by HPAEC as described below. […] The products were analyzed by ion-exclusion HPLC as described below.

[4] = Xylose reductase assay of NcXR with xylodextrin; format: biochemical, Neurospora crassa; conditions: in vitro, xylodextrins with degrees of polymerization 2 to 4; products up to xlt3
Procedure: For the xylose reductase assays of S. stipitis XR and N. crassa XR, 1 μM of purified enzyme was incubated with 0.06% xylodextrin and 2 mM NADPH in 1×PBS at 30° C. Reactions were sampled at 30 min and quenched by heating at 99° C. for 10 min. The products were analyzed by LC-QToF as described below.
For the xylose reductase assays of NcXR, 1 μM of purified enzyme was incubated with 0.06% xylodextrin and 2 mM NADPH in 1×PBS at 30° C. Reactions were sampled at 30 min and quenched by heating at 99° C. for 10 min. The products were analyzed by LC-QToF as described below.

OC1OC[C@@H](O[C@@H]2OC[C@@H](O[C@@H]3OC[C@@H](O)[C@H](O)[C@H]3O)[C@H](O)[C@H]2O)[C@H](O)[C@H]1O (stereo partly shown) [xylotriose]
import into S. cerevisiae strains expressing cdt-2 [1]: able to import

OC1OC[C@@H](O[C@@H]2OC[C@@H](O)[C@H](O)[C@H]2O)[C@H](O)[C@H]1O (stereo partly shown) [xylobiose]
import into S. cerevisiae strains expressing cdt-2 [1]: able to import

OC1OC[C@@H](O[C@@H]2OC[C@@H](O[C@@H]3OC[C@@H](O[C@@H]4OC[C@@H](O)[C@H](O)[C@H]4O)[C@H](O)[C@H]3O)[C@H](O)[C@H]2O)[C@H](O)[C@H]1O (stereo partly shown) [xylotetraose]
import into S. cerevisiae strains expressing cdt-2 [1]: able to import

B1: B. subtilis GH43-7: GH43 enzyme from bacteria Bacillus subtilis, homologous to GH43-7 (protein, listed as Bacillus subtilis)
chain: MKITNPVLKGFNPDPSICRAGEDYYIAVSTFEWFPGVQIHHSKDLVNWHLVAHPLQRVSQLDMKGNPNSGGVWAPCLSYSDGKFWLIYTDVKVVDGAWKDCHNYLVTCETINGDWSEPIKLNSSGFDASLFHDTDGKKYLLNMLWDHRIDRHSFGGIVIQEYSDKEQKLIGKPKVIFEGTDRKLTEAPHLYHIGNYYYLLTAEGGTRYEHAATIARSANIEGPYEVHPDNPILTSWHDPGNPLQKCGHASIVQTHTDEWYLAHLTGRPIHPDDDSIFQQRGYCPLGRETAIQKLYWKDEWPYVVGGKEGSLEVDAPSIPETIFEATYPEVDEFEDSTLNINFQTLRIPFTNELGSLTQAPNHLRLFGHESLTSTFTQAFVARRWQSLHFEAETAVEFYPENFQQAAGLVNYYNTENWTALQVTHDEELGRILELTICDNFSFSQPLNNKIVIPREVKYVYLRVNIEKDKYYYFYSFNKEDWHKIDIALESKKLSDDYIRGGGFFTGAFVGMQCQDTGGNHIPADFRYFRYKEK
β-xylosidase activity [2]: exhibited β-xylosidase activity
xylosyl-xylitol hydrolase activity [2]: exhibited xylosyl-xylitol hydrolase activity

B2: GH43-7: second putative intracellular β-xylosidase from N. crassa with xylosyl-xylitol hydrolase activity (protein)
chain: MPLVKNPILPGFNPDPSVLRVGQDYYIATSTFEWYPGVQIHHSTDLANWTLLTRPLNRKSQLDMRGDPDSCGVWAPCLSHDGDKFWLVYTDVKRKDGSFKDAHNFIVWADKIDGEWSDPVYVNSSGFDPSLFHDPDSGKKYFVNMLWDHRRRPLLFAGIAVQEWDAKTKKLVGERKNVYQGTELALAEAPHVYKRNGWYYLLIAEGGTGYEHACTLARSKDIWGPYKTHPEKHVLTSKDHPRAALQRAGHGDIVEIEDGRTYLVHLTGRPTTQLRRCVLGRETAIQECYWKDDWLYVKNGPVPSLWVDLLGERDESKYWEEKRYTFKDGLHKDFQWLRTPETERIFNVKDGKLTLIGREAIGSWFEQALVARRQEHFSYDAETVIDFSPTDERQFAGLTAYYCRYNFFYLTVTAHSDGQRELLIMSSEASWPIGNLNTPYVPYVQIPNEGKVKLALTIRGNQLQFYYAVLDSGDEELKKIGPVFDASIVSDECGGHQQHGSFTGAFVGVAASDLNGLAAEAKFDYLLYKPVKNQQDAYVRDNE
modifications: N. crassa
β-xylosidase activity ([3]; xylobiose substrate): weak β-xylosidase activity
hydrolysis of xylosyl-xylitol into xylose and xylitol ([3]; xylosyl-xylitol substrate): rapidly hydrolyzed

B3: E. coli GH43-7: GH43 enzyme from bacteria Escherichia coli, homologous to GH43-7 (protein, listed as Escherichia coli)
chain: MEITNPILTGFNPDPSLCRQGEDYYIATSTFEWFPGVRIYHSRDLKNWSLVSTPLDRVSMLDMKGNPDSGGIWAPCLSYADGKFWLLYTDVKIVDSPWKNGRNFLVTAPSIEGPWSEPIPMGNGGFDPSLFHDDDGRKYYIYRPWGPRHHSNPHNTIVLQAFDPQTGTLSPERKTLFTGTPLCYTEGAHLYRHAGWYYLMVAEGGTSYEHAVVVLRSKNIDGPYELHPDVTMMTSWHLPENPLQKSGHGSLLQTHTGEWYMAYLTSRPLRLPGVPLLASGGRGYCPLGRETGIARIEWRDGWPYVEGGKHAQLTVKGPQVAEQPAAVPGNWRDDFDASSLDPELQTLRIPFDDTLGSLTARPGFLRLYGNDSLNSTFTQSTVARRWQHFAFRAETRMEFSPVHFQQSAGLTCYYNSKNWSYCFVDYEEGQGRTIKVIQLDHNVPSWPLHEQPIPVPEHAESVWLRVDVDTLVYRYSYSFDGETWHTVPVTYEAWKLSDDYIGGRGFFTGAFVGLHCEDISGDGCYADFDYFTYEPV
β-xylosidase activity [2]: exhibited β-xylosidase activity
xylosyl-xylitol hydrolase activity [2]: exhibited xylosyl-xylitol hydrolase activity

B4: XYR-1: xylose reductase from Neurospora crassa (protein)
chain: MVPAIKLNSGFDMPQVGFGLWKVDGSIASDVVYNAIKAGYRLFDGACDYGNEVECGQGVARAIKEGIVKREELFIVSKLWNTFHDGDRVEPIVRKQLADWGLEYFDLYLIHFPVALEYVDPSVRYPPGWHFDGKSEIRPSKATIQETWTAMESLVEKGLSKSIGVSNFQAQLLYDLLRYAKVRPATLQIEHHPYLVQQNLLNLAKAEGIAVTAYSSFGPASFREFNMEHAQKLQPLLEDPTIKAIGDKYNKDPAQVLLRWATQRGLAIIPKSSREATMKSNLNSLDFDLSEEDIKTISGFDRGIRFNQPTNYFSAENLWIFG
modifications: N. crassa
production of xylosyl-xylitol oligomers from xylodextrin substrates [4]: able to directly produce xylosyl-xylitol oligomers; also recorded: generated xylosyl-xylitol products
